One block for each substance: values may come before it.
How the values were obtained:
Experiment in all cases: cell-based or functional assay
CEACAM5 (human) = CEACAM5 (human) (UniProt P06731)
CEACAM6 (human) = CEACAM6 (human) (UniProt P40199)
CD19 (human) = CD19 (human) (UniProt P15391)
CD20 (human) = CD20 (human) (UniProt P11836)
CD22 (human) = CD22 (human) (UniProt P20273)
HLA-DR (human) = target: HLA-DR (human)

CD20 (human), sequence (P11836 whole entry): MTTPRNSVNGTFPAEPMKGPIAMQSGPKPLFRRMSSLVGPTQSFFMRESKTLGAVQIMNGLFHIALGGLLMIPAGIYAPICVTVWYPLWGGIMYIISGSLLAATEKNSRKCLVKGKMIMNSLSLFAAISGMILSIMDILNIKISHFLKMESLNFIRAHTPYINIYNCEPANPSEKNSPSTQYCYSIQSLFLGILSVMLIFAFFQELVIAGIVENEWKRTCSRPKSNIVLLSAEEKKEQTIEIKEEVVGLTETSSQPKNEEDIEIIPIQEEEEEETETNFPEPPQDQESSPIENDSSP
CD19 (human), sequence (P15391 20-556): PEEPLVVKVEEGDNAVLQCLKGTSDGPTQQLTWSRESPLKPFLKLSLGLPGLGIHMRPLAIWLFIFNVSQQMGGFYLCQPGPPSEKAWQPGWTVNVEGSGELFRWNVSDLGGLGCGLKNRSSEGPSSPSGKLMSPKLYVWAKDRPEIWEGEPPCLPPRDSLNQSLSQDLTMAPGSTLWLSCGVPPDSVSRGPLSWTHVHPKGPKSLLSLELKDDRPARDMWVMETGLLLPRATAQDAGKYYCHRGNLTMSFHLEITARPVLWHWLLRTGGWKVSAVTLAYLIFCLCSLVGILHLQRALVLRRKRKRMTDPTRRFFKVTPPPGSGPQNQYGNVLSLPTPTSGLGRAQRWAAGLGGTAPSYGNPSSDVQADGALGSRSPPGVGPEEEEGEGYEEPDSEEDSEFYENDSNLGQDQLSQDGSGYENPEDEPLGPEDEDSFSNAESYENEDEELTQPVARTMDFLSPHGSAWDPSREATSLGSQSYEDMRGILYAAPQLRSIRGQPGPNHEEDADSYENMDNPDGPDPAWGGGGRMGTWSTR
CEACAM6 (human), sequence (P40199 35-320): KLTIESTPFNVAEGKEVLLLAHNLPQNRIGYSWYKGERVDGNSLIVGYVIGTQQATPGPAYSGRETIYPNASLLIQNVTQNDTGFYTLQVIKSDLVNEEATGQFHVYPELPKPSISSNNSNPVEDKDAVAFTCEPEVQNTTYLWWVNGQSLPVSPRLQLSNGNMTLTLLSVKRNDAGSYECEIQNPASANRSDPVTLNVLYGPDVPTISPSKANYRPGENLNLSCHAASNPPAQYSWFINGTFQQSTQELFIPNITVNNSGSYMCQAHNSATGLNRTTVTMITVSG
CEACAM5 (human), sequence (P06731 35-702): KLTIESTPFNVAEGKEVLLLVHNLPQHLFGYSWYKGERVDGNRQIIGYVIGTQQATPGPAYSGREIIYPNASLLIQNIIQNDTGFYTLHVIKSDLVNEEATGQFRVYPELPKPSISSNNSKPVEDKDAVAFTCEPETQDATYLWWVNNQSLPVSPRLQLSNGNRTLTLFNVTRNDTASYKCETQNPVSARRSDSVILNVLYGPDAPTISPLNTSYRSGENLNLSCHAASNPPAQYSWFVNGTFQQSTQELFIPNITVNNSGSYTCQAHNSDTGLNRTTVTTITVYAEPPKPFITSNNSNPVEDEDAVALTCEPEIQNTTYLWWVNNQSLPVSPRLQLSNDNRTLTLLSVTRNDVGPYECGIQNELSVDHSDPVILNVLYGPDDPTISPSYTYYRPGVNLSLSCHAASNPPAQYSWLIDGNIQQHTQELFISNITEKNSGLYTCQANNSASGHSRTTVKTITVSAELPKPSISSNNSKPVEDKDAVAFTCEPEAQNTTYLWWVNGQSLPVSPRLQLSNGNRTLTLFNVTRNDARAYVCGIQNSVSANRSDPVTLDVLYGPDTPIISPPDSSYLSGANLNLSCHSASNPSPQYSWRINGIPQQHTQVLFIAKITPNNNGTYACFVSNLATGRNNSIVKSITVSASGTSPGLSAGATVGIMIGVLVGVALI

- T-cell mediated lysis of LS-174T, IC50 (CEACAM5 (human)): 2 pM
Substance: (14)-3s, anti-CEACAM5 x anti-CD3 DNL complex (two CH1-DDD2-Fab-hMN-14 + one scFv-AD2-Okt3) (bispecific antibody)

- T-cell mediated lysis of NCI-N87, IC50 (CEACAM6 (human)): 3 pM
Substance: (15)-3s, anti-CEACAM6 x anti-CD3 DNL complex (two CH1-DDD2-Fab-hMN-15 + one scFv-AD2-Okt3) (bispecific antibody)

- % of cell population in T cell-B cell association (CD3+CD20+) at 0.1 µg/mL (19)-3s (CD19 (human)): > 25%
- association of Daudi cells with T cells after (19)-3s (CD19 (human)): > 90%
- co-binding of Daudi and T cells, % CD20+/CD7+ flow events after (19)-3s (CD19 (human)): 45.5%
- concentration at saturation of (19)-3s-mediated cell-to-cell association (Jurkat/Daudi) (CD19 (human)): 0.037 to 0.111 µg/mL
Substance: (19)-3s, anti-CD19 x anti-CD3 DNL complex (two CH1-DDD2-Fab-hA19 + one scFv-AD2-Okt3) (bispecific antibody)
- T-cell mediated killing of Daudi, LysisMax (CD19 (human)): 60%
- T-cell mediated killing of Nalm6, LysisMax (CD19 (human)): 93%
- T-cell mediated killing of Namalwa, LysisMax (CD19 (human)): 60%
- T-cell mediated killing of Raji, IC50 (CD19 (human)): 3000 pM
- T-cell mediated killing of Raji, LysisMax (CD19 (human)): 41%
- T-cell mediated killing of Ramos, IC50 (CD19 (human)): 0.17 pM
- T-cell mediated killing of Ramos, LysisMax (CD19 (human)): 79%
- ex vivo re-directed T-cell killing of Daudi, IC50 (CD19 (human)): 1 pM
- ex vivo re-directed T-cell killing of Jeko-1, IC50 (CD19 (human)): 3000 pM
- ex vivo re-directed T-cell killing of Nalm-6, IC50 (CD19 (human)): 6 pM
- ex vivo re-directed T-cell killing of Namalwa, IC50 (CD19 (human)): 63 pM
- ex vivo re-directed T-cell killing of Raji, IC50 (CD19 (human)): > 3000 pM
- ex vivo re-directed T-cell killing of Ramos, IC50 (CD19 (human)): 2 pM

Substance: (20)-3s, anti-CD20 x anti-CD3 DNL complex (two CH1-DDD2-Fab-hA20 + one scFv-AD2-Okt3) (bispecific antibody)
- T-cell mediated killing of Daudi, IC50 (CD20 (human)): < 0.3 pM
- T-cell mediated killing of Daudi, LysisMax (CD20 (human)): 90%
- T-cell mediated killing of Jeko, LysisMax (CD20 (human)): 90%
- T-cell mediated killing of Namalwa, LysisMax (CD20 (human)): 53%
- ex vivo re-directed T-cell killing of Daudi, IC50 (CD20 (human)): 0.3 pM
- ex vivo re-directed T-cell killing of Jeko-1, IC50 (CD20 (human)): 1 pM
- ex vivo re-directed T-cell killing of Namalwa, IC50 (CD20 (human)): 30 pM
- ex vivo re-directed T-cell killing of Ramos, IC50 (CD20 (human)): 0.4 pM

- T-cell mediated lysis of Daudi, IC50 (CD22 (human)): 5 pM
- T-cell mediated lysis of Daudi, LysisMax (CD22 (human)): 60%
Substance: (22)-3s, anti-CD22 x anti-CD3 DNL complex (two CH1-DDD2-Fab-hLL2 + one scFv-AD2-Okt3) (bispecific antibody)
- ex vivo re-directed T-cell killing of Daudi, IC50 (CD22 (human)): 6 pM
- ex vivo re-directed T-cell killing of Namalwa, IC50 (CD22 (human)): > 3000 pM

Substance: (C2)-3s, anti-HLA-DR x anti-CD3 DNL complex (two CH1-DDD2-Fab-hL243 + one scFv-AD2-Okt3) (bispecific antibody)
- T-cell mediated killing of Jeko-1, LysisMax (HLA-DR (human)): 88%
- ex vivo re-directed T-cell killing of Jeko-1, IC50 (HLA-DR (human)): 20 pM
- ex vivo re-directed T-cell killing of Ramos, IC50 (HLA-DR (human)): 2 pM

— patent US20180118846A1
